{
  "source": "patent US5587462",
  "about": "“Brain-derived membrane-associated CRF binding proteins” (The Salk Institute For Biological Studies, dated 1996)",
  "molecules": {"B1": {"name": "33 kD ovine brain-derived membrane-associated CRF-BP (other)", "chain": "ELEGEPLYRRALRCVDMLSLQGQFTFTADRRQLHCATFFIAEPEEFITIHYDLVSIDCLRGDILQVFDGWILKGEKFPSSQDHPLPTTERYVDFCDSGLSRRSIRSSQNVAMIFFRVHEPGNGFTITVKTEPNLFPCNIISQTPNGRFTLVMPHQHRNCSFSIIYPVAIKISDLTLGHLNGLQLKKSSAGCGGIGDFVELLGGTGLDPSKMLLLADLCYPLRGPAQMKVGCDHTVLRMVSSGKLLNRVTFEYRKLEPYELENPNGNSIQEFCLSTL"}, "B2": {"name": "35 kD ovine brain-derived membrane-associated CRF-BP (other)", "chain": "EAVDHDSFPHLAGGASPKRELEGEPLYRRALRCVDMLSLQGQFTFTADRRQLHCATFFIAEPEEFITIHYDLVSIDCLRGDILQVFDGWILKGEKFPSSQDHPLPTTERYVDFCDSGLSRRSIRSSQNVAMIFFRVHEPGNGFTITVKTEPNLFPCNIISQTPNGRFTLVMPHQHRNCSFSIIYPVAIKISDLTLGHLNGLQLKKSSAGCGGIGDFVELLGGTGLDPSKMLLLADLCYPLRGPAQMKVGCDHTVLRMVSSGKLLNRVTFEYRKLEPYELENPNGNSIQEFCLSTL"}},
  "key": {"[1]": {"biological_target": "35 kD ovine brain-derived membrane-associated CRF-BP (sheep (ovine))", "assay": "competition of radiolabeled CRF binding by cold CRF"}, "[2]": {"biological_target": "33 kD ovine brain-derived membrane-associated CRF-BP (sheep (ovine))", "assay": "competition of radiolabeled CRF binding by cold CRF"}, "[3]": {"biological_target": "T1, human Corticotropin-Releasing Factor (hCRF) (human (same molecule in rat), UniProt P06850, 125I-radiolabeled in the binding, cross-linking and LIRMA assays; immobilized on a solid-phase matrix in the affinity chromatography)", "T1 peptide": "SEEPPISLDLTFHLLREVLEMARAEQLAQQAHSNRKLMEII", "assay": "binding assay with purified membrane-associated CRF-BP"}},
  "data": [
    {"molecule": "Corticotropin-Releasing Factor (CRF), species not stated at the experiment (peptide)", "values": [
      {"measurement": "concentration of cold CRF that competes", "setting": "[1]", "result": 1, "unit": "µM"},
      {"measurement": "concentration of cold CRF that competes", "setting": "[2]", "result": 1, "unit": "µM"}
    ]},
    {"molecule": "B1", "values": [
      {"measurement": "Kd", "setting": "[3]", "result": 0.25, "unit": "nM"}
    ]},
    {"molecule": "B2", "values": [
      {"measurement": "Kd", "setting": "[3]", "result": 7.5, "unit": "nM"}
    ]}
  ]
}
